Test results from article PMC3634583.

How the values were obtained:
[1] = Western blot of 293T lysate, 8 kDa BNP form; conditions: glycan lost; control: wild-type pre-proBNP
[2] = Western blot; conditions: glycan lost; control: wild-type pre-proBNP

Substance: proBNP1-108 (pro-B-type natriuretic peptide): T71A
- other: proteolytic processing [1]: increases
- other: proteolytic processing [2]: increases
